Test results from IntAct's records for PubMed 22949657.

B1: Tumor necrosis factor alpha-induced protein 8-like protein 2 (Homo sapiens), Q6P589 (parent)
chain: MESFSSKSLALQAEKKLLSKMAGRSVAHLFIDETSSEVLDELYRVSKEYTHSRPQAQRVIKDLIKVAIKVAVLHRNGSFGPSELALATRFRQKLRQGAMTALSFGEVDFTFEAAVLAGLLTECRDVLLELVEHHLTPKSHGRIRHVFDHFSDPGLLTALYGPDFTQHLGKICDGLRKLLDEGKL

Variants of: B1
Conditions: with RAC1, P63000-1

Row | Variant | effect of a mutation on the interaction
1 | K15Q;K16Q | decreasing interaction strength
2 | R24A | disrupting interaction strength
